Data: patent US20090181018A1 (Eli Lilly, published 2009)
Each block holds one binder with its values, some of them ahead of it.

Experiments:
human des-acyl ghrelin = target: T1, human des-acyl ghrelin (human); experiment: SPR (BIAcore 2000), Mab amine-coupled to CM5 chip, des-acyl ghrelin as analyte, about 25 C
T1 construct: also called unacylated human ghrelin
Description: (§1) Except where noted, all reagents and materials are purchased from BIAcore® AB (Uppsala, Sweden). All measurements are performed at about 25° C. All samples containing human ghrelin (full length, C-8 acylated or des-acyl) and anti-ghrelin Mabs are diluted in HBS-EP buffer (150 mM sodium chloride, 3 mM EDTA, 0.005% (w/v) surfactant P-20, and 10 mM HEPES, pH 7.4). For all of the Mabs, the antibody is directly coupled to a CM5 chip using the amine-coupling chemistry described below, aiming for a surface density of between 800-1000 response units (RU). Flow cells (1-4) are activated for 7 minutes with a 1:1 mixture of 0.1 M N-hydroxysuccinimide and 0.1 M 3-(N,N-dimethylamino)propyl-N-ethylcarbodiimide at a flow rate of 10 μl/min. The Mab is diluted to 10 μg/mL in 10 mM sodium acetate, pH 4.5, and manually injected over all four flow cells at a flow rate of 10 μl/min. The surface density is monitored, and additional capture antibody is injected as needed to each individual cell until all flow cells reach a surface density of 800-1000 RU. Surfaces are blocked with a seven minute injection of 1 M ethanolamine-HCl, pH 8.5(10 μl/min). To ensure complete removal of any noncovalently bound capture antibody, 15 μl of 10 mM glycine, pH 1.5, are injected twice. Running buffer for kinetic experiments is HBS-EP buffer (150 mM sodium chloride, 3 mM EDTA, 0.005% (w/v) surfactant P-20, and 10 mM HEPES, pH 7.4).
(§2) Collection of kinetic binding data is performed at maximum flow rate (100 μl/min) and a low surface density to minimize mass transport effects. Each analysis cycle consists of: (i) 200 μl injection (2 min.) of ghrelin (concentration range of 50 nM to 0.39 nM in 2-fold dilution increments) over all four flow cells with flow cell 1 as the reference flow cell; (ii) 20 min. dissociation (buffer only flow); (iii) regeneration of chip surface with a 15 sec injection of 10 mM glycine, pH 1.5; and (iv) a 2 min. stabilization time before the start of the next cycle. The signal is monitored as flow cell 2 minus flow cell 1, flow cell 3 minus flow cell 1, and flow cell 4 minus flow cell 1. Samples and a buffer blank are injected in duplicate in a random order. Data are processed using BIAevaluation v.4.1 software and data are fit to a 1:1 binding model in either BIAevaluation v.4.1 or CLAMP global analysis software.

[1] = target: T2, C-8 acylated human ghrelin (1-28) (human, n-octanoyl (C8) group on Ser3); experiment: SPR (BIAcore 2000), Mab amine-coupled to CM5 chip, ghrelin as analyte, about 25 C
T2 construct: 28-residue ghrelin, octanoylated at Ser3; the analyte in SPR and the agonist in the FLIPR assay; also called C8 acylated ghrelin; full length, C-8 acylated human ghrelin
Description: as §1, §2

[2] = target: T2, C-8 acylated human ghrelin (1-28); experiment: SPR (BIAcore 2000), Fab captured by goat anti-human kappa, ghrelin as analyte, about 25 C
Description: The affinity (KD) of humanized/optimized anti-ghrelin Fabs disclosed in Example 1 for C-8 acylated human ghrelin (1-28) is measured using a BIAcore™ 2000 instrument containing a CM5 sensor chip. Except where noted, all reagents and materials are purchased from BIAcore™ AB (Uppsala, Sweden). Measurements are performed at about 25° C. Samples containing human ghrelin are dissolved in HBS-EP buffer (150 mM sodium chloride, 3 mM EDTA, 0.005% (w/v) surfactant P-20, and 10 mM HEPES, pH 7.4). A capture antibody, goat anti-mouse Kappa (Southern Biotechnology, Inc.) for the D4 and D4 7.1 Fabs, and goat anti-human kappa (Jackson ImmunoResearch) for all other Fabs, hereafter termed “capture antibody,” is immobilized onto flow cells using amine-coupling chemistry. Flow cells (1-4) are activated for 7 minutes with a 1:1 mixture of 0.1 M N-hydroxysuccinimide and 0.1 M 3-(N,N-dimethylamino)propyl-N-ethylcarbodiimide at a flow rate of 10 μl/min. Goat anti-mouse Kappa or goat anti-human kappa (30 μg/mL in 10 mM sodium acetate, pH 4.5) is manually injected over all 4 flow cells at a flow rate of 10 μl/min. The surface density is monitored and additional capture antibody is injected if needed to individual cells until all flow cells reach a surface density of 4500-5000 response units (RU). Surfaces are blocked with a 7 minute injection of 1 M ethanolamine-HCl, pH 8.5 (10 μl/min). To ensure complete removal of any noncovalently bound capture antibody, 15 μl of 10 mM glycine, pH 1.5, is injected twice. Running buffer used for kinetic experiments contains 10 mM HEPES, pH 7.4, 150 mM NaCl, 0.005% P20.
Collection of kinetic binding data is performed at maximum flow rate (100 μl/min) and a low surface density to minimize mass transport effects. Each analysis cycle consists of: (i) capture of 300-350 RU of Fabs (BioSite) by injection of 5-10 μl of 5 μg/ml solution over flow cell 2, 3 and 4 for different Fabs at a flow rate of 10 μl/min., (ii) 200 μl injection (2 min.) of human ghrelin (concentration range of 50 nM to 0.39 nM in 2-fold dilution increments) over all 4 flow cells with flow cell 1 as the reference flow cell, (iii) 20 min. dissociation (buffer flow), (iv) regeneration of capture antibody surface with a 15 seq injection of 10 mM glycine, pH 1.5, (v) a 30 sec blank injection of running buffer, and (vi) a 2 min. stabilization time before the start of the next cycle.

[3] = target: T2, C-8 acylated human ghrelin (1-28); experiment: SPR (BIAcore 2000), half-life of the complex
Description: The affinity (KD) of humanized/optimized anti-ghrelin Fabs disclosed in Example 1 for C-8 acylated human ghrelin (1-28) is measured using a BIAcore™ 2000 instrument containing a CM5 sensor chip. Except where noted, all reagents and materials are purchased from BIAcore™ AB (Uppsala, Sweden). Measurements are performed at about 25° C. Samples containing human ghrelin are dissolved in HBS-EP buffer (150 mM sodium chloride, 3 mM EDTA, 0.005% (w/v) surfactant P-20, and 10 mM HEPES, pH 7.4). A capture antibody, goat anti-mouse Kappa (Southern Biotechnology, Inc.) for the D4 and D4 7.1 Fabs, and goat anti-human kappa (Jackson ImmunoResearch) for all other Fabs, hereafter termed “capture antibody,” is immobilized onto flow cells using amine-coupling chemistry. Flow cells (1-4) are activated for 7 minutes with a 1:1 mixture of 0.1 M N-hydroxysuccinimide and 0.1 M 3-(N,N-dimethylamino)propyl-N-ethylcarbodiimide at a flow rate of 10 μl/min. Goat anti-mouse Kappa or goat anti-human kappa (30 μg/mL in 10 mM sodium acetate, pH 4.5) is manually injected over all 4 flow cells at a flow rate of 10 μl/min. The surface density is monitored and additional capture antibody is injected if needed to individual cells until all flow cells reach a surface density of 4500-5000 response units (RU). Surfaces are blocked with a 7 minute injection of 1 M ethanolamine-HCl, pH 8.5 (10 μl/min). […]

[4] = target: T2, C-8 acylated human ghrelin (1-28); experiment: SPR (BIAcore 2000), half-life of the complex calculated from koff
Description: as §1, with “Surfaces are blocked with a seven minute injection of 1 M ethanolamine-HCl, pH 8.5(10 μl/min). To ensure complete removal of any noncovalently bound capture antibody, 15 μl of 10 mM glycine, pH 1.5, are injected twice. Running buffer for kinetic experiments is HBS-EP buffer (150 mM sodium chloride, 3 mM EDTA, 0.005% (w/v) surfactant P-20, and 10 mM HEPES, pH 7.4).” left out
Collection of kinetic binding data is performed at maximum flow rate (100 μl/min) and a low surface density to minimize mass transport effects. […] The signal is monitored as flow cell 2 minus flow cell 1, flow cell 3 minus flow cell 1, and flow cell 4 minus flow cell 1. […]

[5] = target: T2, C-8 acylated human ghrelin (1-28); experiment: cell-based or functional assay

T2 sequence (peptide, as listed by the source): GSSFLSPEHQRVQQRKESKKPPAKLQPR

t1/2 [3]: 1 min
Kd [2]: 1 nM
koff [2]: 0.00875 s⁻¹
B4: Fab T32Y (Fab, V domains shown)
VH: QVQLVQSGAEVKKPGASVKVSCKVSGYTFTSYWMHWVRQAPGKGLEWMGYIDPSTGYTEYTQKFKDRVTMTEDTSTDTAYMELSSLRSEDTAVYYCATDGYDEDYWGQGTTVTVSS
VL: DIVMTQSPLSLPVTPGEPASISCRSSDSLGHSSGHTYLSWYLQKPGQSPGLLIYKVSNRFDGVPDRFSGSGSGTDFTLKISRVEAEDVGVYYCSQSTLVPWTFGQGTKLEIK
notes: The Fab was captured by goat anti-human kappa

t1/2 [4]: 1 min
Kd [1]: 0.4 nM
koff [1]: 0.0169 s⁻¹
kon [1]: 4.24e+07 M⁻¹ s⁻¹
B5: Mab S34H (antibody, rat IgG1, V domains shown)
VH: QVQLVQSGAEVKKPGASVKVSCKVSGYTFTSTWMHWVRQAPGKGLEWMGYIDPSTGYTEYTQKFKDRVTMTEDTSTDTAYMELSSLRSEDTAVYYCATDGYDEDYWGQGTTVTVSS
VL: DIVMTQSPLSLPVTPGEPASISCRSSDSLGHSSGHTYLHWYLQKPGQSPGLLIYKVSNRFDGVPDRFSGSGSGTDFTLKISRVEAEDVGVYYCSQSTLVPWTFGQGTKLEIKD

t1/2 [4]: 201 min
koff [1]: 5.74e-05 s⁻¹
koff (human des-acyl ghrelin): 6.67e-05 s⁻¹
B7: Mab A5 (antibody, rat IgG1, V domains shown)
VH: QVQLVQSGAEVKKPGASVKVSCKVSGYTFTSTWMHWVRQAPGKGLEWMGYIDPSTGYTEYTQKFKDRVTMTEDTSTDTAYMELSSLRSEDTAVYYCATDGYDYDYWGQGTTVTVSS
VL: DIVMTQSPLSLPVTPGEPASISCRSSDHLGHSTGYTYLSWYLQKPGQSPGLLIYKVSNRFDGVPDRFSGSGSGTDFTLKISRVEAEDVGVYYCSQSTLVPWTFGQGTKLEIKD

IC50, in vitro FLIPR calcium assay (intracellular calcium in AV12 cells expressing GHS-R1a) [5]: 1.12 nM
Kd (human des-acyl ghrelin): 0.176 nM
B8: Mab D27Q (antibody, rat IgG1, V domains shown)
VH: QVQLVQSGAEVKKPGASVKVSCKVSGYTFTSTWMHWVRQAPGKGLEWMGYIDPSTGYTEYTQKFKDRVTMTEDTSTDTAYMELSSLRSEDTAVYYCATDGYDEDYWGQGTTVTVSS
VL: DIVMTQSPLSLPVTPGEPASISCRSSQSLGHSSGHTYLSWYLQKPGQSPGLLIYKVSNRFDGVPDRFSGSGSGTDFTLKISRVEAEDVGVYYCSQSTLVPWTFGQGTKLEIKD

More lines, now with the values behind:

B1: Mab D52N (antibody, rat IgG1, V domains shown)
VH: QVQLVQSGAEVKKPGASVKVSCKVSGYTFTSTWMHWVRQAPGKGLEWMGYINPSTGYTEYTQKFKDRVTMTEDTSTDTAYMELSSLRSEDTAVYYCATDGYDEDYWGQGTTVTVSS
VL: DIVMTQSPLSLPVTPGEPASISCRSSDSLGHSSGHTYLSWYLQKPGQSPGLLIYKVSNRFDGVPDRFSGSGSGTDFTLKISRVEAEDVGVYYCSQSTLVPWTFGQGTKLEIKD
Kd (human des-acyl ghrelin): 1.05 nM
koff (human des-acyl ghrelin): 0.0343 s⁻¹
kon (human des-acyl ghrelin): 3.26e+07 M⁻¹ s⁻¹

B2: Mab A4 (antibody, V domains shown)
VH: QVQLVQSGAEVKKPGASVKVSCKVSGYTFTSTWMHWVRQAPGKGLEWMGYIDPSTGYTEYTQKFKDRVTMTEDTSTDTAYMELSSLRSEDTAVYYCATDGYDFDYWGQGTTVTVSS
VL: DIVMTQSPLSLPVTPGEPASISCRSSDSLGHSTGFTYLSWYLQKPGQSPGLLIYKVSNRFDGVPDRFSGSGSGTDFTLKISRVEAEDVGVYYCSQSTLVPWTFGQGTKLEIKD
Kd [1]: 0.074 nM
kon [1]: 4.44e+06 M⁻¹ s⁻¹
kon (human des-acyl ghrelin): 4.56e+06 M⁻¹ s⁻¹

B3: Fab S28D (Fab, V domains shown)
VH: QVQLVQSGAEVKKPGASVKVSCKVSGYTFTSTWMHWVRQAPGKGLEWMGYIDPSTGYTEYTQKFKDRVTMTEDTSTDTAYMELSSLRSEDTAVYYCATDGYDEDYWGQGTTVTVSS
VL: DIVMTQSPLSLPVTPGEPASISCRSSDSLGHSDGNTYLSWYLQKPGQSPGLLIYKVSNRFDGVPDRFSGSGSGTDFTLKISRVEAEDVGVYYCSQSTLVPWTFGQGTKLEIK
notes: as for B4
kon [2]: 3e+07 M⁻¹ s⁻¹

B6: Fab A2 (Fab, V domains shown)
VH: QVQLVQSGAEVKKPGASVKVSCKVSGYTFTSTWMHWVRQAPGKGLEWMGYIDPSTGYTEYTQKFKDRVTMTEDTSTDTAYMELSSLRSEDTAVYYCATDGYDFDYWGQGTTVTVSS
VL: DIVMTQSPLSLPVTPGEPASISCRSSDSLGHSTGFTYLSWYLQKPGQSPGLLIYKVSNRFDGVPDRFSGSGSGTDFTLKISRVEAEDVGVYYCSQSTLVPWTFGQGTKLEIK
notes: The Fab was captured by goat anti-human kappa, so it has a human kappa light chain
t1/2 [3]: 43 min
Kd [2]: 0.043 nM
koff [2]: 0.00027 s⁻¹
kon [2]: 6.34e+06 M⁻¹ s⁻¹
